{"source": "paper PMC10200060", "about": "“Inhibition of DAMP actions in the tumoral microenvironment using lactoferrin-glycyrrhizin conjugate for glioblastoma therapy” (Biomaterials Research, 2023)", "molecules": {"B1": {"name": "Lf-GL: lactoferrin-glycyrrhizin conjugate with ligation ratio Lf:GL 1:10, used in further experiments (conjugate, UniProt P24627 20-708, looked up)", "Lactotransferrin": "APRKNVRWCTISQPEWFKCRRWQWRMKKLGAPSITCVRRAFALECIRAIAEKKADAVTLDGGMVFEAGRDPYKLRPVAAEIYGTKESPQTHYYAVAVVKKGSNFQLDQLQGRKSCHTGLGRSAGWIIPMGILRPYLSWTESLEPLQGAVAKFFSASCVPCIDRQAYPNLCQLCKGEGENQCACSSREPYFGYSGAFKCLQDGAGDVAFVKETTVFENLPEKADRDQYELLCLNNSRAPVDAFKECHLAQVPSHAVVARSVDGKEDLIWKLLSKAQEKFGKNKSRSFQLFGSPPGQRDLLFKDSALGFLRIPSKVDSALYLGSRYLTTLKNLRETAEEVKARYTRVVWCAVGPEEQKKCQQWSQQSGQNVTCATASTTDDCIVLVLKGEADALNLDGGYIYTAGKCGLVPVLAENRKSSKHSSLDCVLRPTEGYLAVAVVKKANEGLTWNSLKDKKSCHTAVDRTAGWNIPMGLIVNQTGSCAFDEFFSQSCAPGADPKSRLCALCAGDDQGLDKCVPNSKEKYYGYTGAFRCLAEDVGDVAFVKNDTVWENTNGESTADWAKNLNREDFRLLCLDGTRKPVTEAQSCHLAVAPNHAVVSRSDRAAHVKQVLLHQQALFGKNGKNCPDKFCLFKSETKNLLFNDNTECLAKLGGRPTYEEYLGTEYVTAIANLKKCSTSPLLEACAFLTR", "modifications": "glycyrrhizin conjugate"}}, "key": {"U87MG": {"tested_on": "U87MG", "assay": "Annexin V/PI apoptosis staining in U87MG", "assay_type": "cell-based, human", "settings": "GL equivalent 50 µM, 24 h (control 1.40%)", "method": "Fig. S10. Non-apoptotic U87MG growth inhibition of Lf-GL. Annexin V-DY-634 / PI apoptosis staining to detect the apoptosis and necrosis in the Control, GL, Lf, and Lf-GL treated group at all GL equivalent concentration of 50 µM for 24 h. However, the cell population of annexin V (+)/PI (+) in the Lf-GL treatment group was 0.28%, which was even lower level to 1.40% in the Control group"}, "[1]": {"tested_on": "U87MG human glioma cell line", "assay": "Cell viability test (CCK-8) in U87MG", "assay_type": "cell-based", "settings": "50 μM GL equivalent", "method": "Cell viability was determined using a cell counting kit-8 (CCK-8). U87MG and HUVECs (seeding density: 0.75 × 10^4 cells per well) in 96-well culture plates were treated with GL, Lf, or Lf-GL (25 to 200 × 10^–6 M of GL equivalent concentration) and were incubated for different periods of time (24, 48, and 72 h). After washing with PBS, they were treated with a cell culture medium containing a CCK-8 assay kit (Abbkine) and were incubated at 37 °C and 5% CO2 for 2 h. Then, absorbance was measured at 450 nm in a micro-plate reader (VLBL00D0, Thermo Fisher Scientific). Results were quantified using Sigma Plot (Systat Software, USA). To determine the effect of extracellular HMGB1 in GBM and endothelial cell proliferation, U87MG and HUVECs were seeded in 96-well culture plates (seeding density: 0.75 × 10^4 cells per well) and GL, Lf, or Lf-GL (50 × 10^–6 M GL equivalent concentration) were added to cells with or without HMGB1 protein (U87MG: 0.1 μg mL^−1, and HUVEC: 1 μg mL^−1). Cells were incubated for different periods of time (24, 48, and 72 h)."}, "HMGB1 [2]": {"tested_on": "HMGB1", "assay": "Immunofluorescence staining of HMGB1 in GBM tissue", "assay_type": "in vivo, Balb/c nude mice", "settings": "GBM mice, daily i.v. GL equivalent 50 mg kg^−1, 14 days (control 15.3 ± 1.7)", "excerpt": "After two weeks, mice were sacrificed, and the brains were harvested and fixed with paraformaldehyde (4%). Then, tissue processing was automatically conducted using a Leica TP1020 semi-enclosed Benchtop Tissue Processor (Leica Biosystems, Wetzlar, Hesse, Germany), followed by embedding in paraffin blocks. Paraffin blocks were sliced into 5 μm thick slices using a Leica RM2145 Microtome (Leica Biosystems). Nissl staining was used to stain brain tissue slides with pre-warmed 0.1% Cresyl Violet Stain Solution (Abcam). TUNEL assays were conducted following the manufacturer’s instructions. For immunofluorescence staining; anti-HMGB1 antibody (Abcam), anti-Ki67 antibody (Abcam), anti-CD31 antibody (Abcam), and anti-VEGF antibody (Abcam) were used as primary antibodies, and goat anti-rabbit IgG-H&L Alexa Fluor 488 and goat anti-rabbit IgG H&L Alexa Fluor 647 were used as secondary antibodies, followed by DAPI mounting."}, "[3]": {"assay": "In vivo fluorescence tracer image (brain)", "set-up": "species or system Balb/c mice", "settings": "FITC-tagged", "method": "For the fluorescence tracer images, Balb/c mice were administered either FITC-tagged GL or FITC-tagged Lf-GL at a GL equivalent concentration of 50 mg kg^−1 body weight via tail vein injection. After 1, 10, 30, and 60 min, the experimental mice were sacrificed, and the organs were extracted. The fluorescence signals of FITC-tagged GL or FITC-tagged Lf-GL in organs were imaged using an in vivo imaging system (FOBI, CELLGENTEK, South Korea). The exposure time was fixed to 200 s for analyzing fluorescent signals from tissues. The quantified fluorescence signal of the brain at each time point was measured in terms of intensity units (IU, Intensity Min^−1 Gain^−1).\nFig. S15. Fluorescence tracer images of intravenously injected GL and Lf-GL. Balb/c mice were administered either FITC-tagged GL or FITC-tagged Lf-GL at a GL equivalent concentration of 50 mg kg^-1 body weight via tail vein injection. The fluorescence signals of FITC-tagged GL or FITC-tagged Lf-GL in organs were imaged using an in vivo imaging system (FOBI, CELLGENTEK, South Korea). The exposure time was fixed to 200 sec for analyzing fluorescent signals from tissues. The quantified fluorescence signal of brain at each time point was measured with Intensity Unit (IU, Intensity Min^-1 Gain^-1)."}, "[4]": {"assay": "In vivo pharmacokinetics study", "settings": "mice, i.v."}, "HMGB1 [5]": {"tested_on": "HMGB1", "assay": "HMGB1 ELISA of U87MG culture medium", "assay_type": "cell-based, human", "settings": "50 μM GL equivalent, 48 h (control 131.8 ± 11.4)", "method": "U87MG cells were seeded in 100 mm-cell culture dishes (2.2 × 10^6 cells per dish) and treated with GL, Lf, or Lf-GL (50 × 10^–6 M GL equivalent concentration) for 48 h. After incubating, cells were collected using a cell scrapper and were centrifuged for 3 min at 150 × g. Supernatant was collected as cell culture medium, and pellets were washed with cold PBS twice and transferred into a microcentrifuge tube. Tubes were centrifuged, and then pellets were resuspended in 500 μL 1X hypotonic buffer and incubated on ice. Then, 25 μL of NP40 was added and the mixture was agitated using a vortex mixer at the highest setting. Homogenates were centrifuged for 10 min at 842 × g at 4℃. Supernatant was collected as the cytoplasmic fraction, and pellets were resuspended in cell extraction buffer (50 μL) and were incubated for 30 min on ice with vortexing at 10 min intervals. Then, homogenates were centrifuged for 30 min at 14,000 × g at 4℃. Supernatant was collected as the nuclear fraction. The amount of HMGB1 in the samples was measured using a HMGB1 ELISA kit (Abbkine), and absorbance was measured at 450 nm in a micro-plate reader. A DNA assay (Quant-iT™ dsDNA Assay Kit, Invitrogen) was also conducted to express HMGB1 concentrations in equivalent amounts of DNA."}, "[6]": {"tested_on": "orthotopic GBM (U87MG) mice model", "assay": "Survival in orthotopic GBM mouse model", "assay_type": "in vivo, Balb/c nude mice", "settings": "i.v. GL equivalent 50 mg kg^−1 (Lf 5 mg kg^−1)", "method": "To establish the orthotopic GBM mice model, GBM cells (U87MG, inoculation density: 1.0 × 10^6 cells per 10 μL) were stereotactically injected into the right striatum of Balb/c nude mice. Then, mice were randomly divided into four groups (n = 5): control, GL, Lf, and Lf-GL treated group. […] After four weeks, mice were sacrificed, and organs were harvested and fixed with 4% paraformaldehyde for further analysis."}, "[7]": {"settings": "mouse, in vivo, iv"}, "[8]": {"settings": "GL equivalent 50 mg kg^−1, plasma"}}, "data": [{"molecule": "B1", "values": [{"measurement": "Annexin V (+)/PI (+) cell population", "setting": "U87MG", "result": 0.28, "unit": "%"}, {"measurement": "Growth rate", "setting": "[1]; 72 h", "result": "68.7 ± 15.9", "unit": "%"}, {"measurement": "Number of cells, % of the original count", "setting": "[1]; after 48 h treatment", "result": "44.1 ± 6.3", "unit": "%"}, {"measurement": "Mean fluorescence intensity (MFI) of HMGB1", "setting": "HMGB1 [2]", "result": "1.7 ± 1.0"}, {"measurement": "Time up to which fluorescence signal was detected in the brain", "setting": "[3]; i.v. GL equivalent 50 mg kg^−1", "result": "up to 60 min"}, {"measurement": "Fluorescence intensity in the brain", "setting": "[3]; i.v. GL equivalent 50 mg kg^−1, 10 min after injection", "result": "15,234 I.U."}, {"measurement": "Increase of AUClast versus free GL", "setting": "[4]; GL equivalent 50 mg kg^−1", "result": "tenfold"}, {"measurement": "Cmax", "setting": "[4]; [8]", "result": "270.98 ± 130.92", "unit": "μg/㎖"}, {"measurement": "MRT, mean retention time", "setting": "[4]; [8]", "result": "3.4 ± 0.8", "unit": "min"}, {"measurement": "Tmax", "setting": "[4]; [8]", "result": 1, "unit": "min"}, {"measurement": "HMGB1 released into the medium of U87MG cells", "setting": "HMGB1 [5]", "result": "74.0 ± 0.9", "unit": "ng/mL"}, {"measurement": "Mice survived up to 28 days", "setting": "[6]", "result": 87.5, "unit": "%"}, {"measurement": "Additional days of survival versus PBS control", "setting": "[6]; 28 days", "result": 5, "unit": "days"}, {"measurement": "Time after administration until cleared from / remaining in circulation", "setting": "[7]", "result": 720, "unit": "min"}, {"measurement": "T1/2, elimination half-life", "setting": "[7]; 50 mg/kg", "result": "5.3 ± 0.4", "unit": "min"}]}]}
